Measured values reported in patent US20260193376A1.

Molecular target: human plasma-derived Factor IXa (human) (UniProt P00740)
Experiment: cell-based or functional assay

human plasma-derived Factor IXa (human), sequence (P00740 47-191, chain 1 of 2): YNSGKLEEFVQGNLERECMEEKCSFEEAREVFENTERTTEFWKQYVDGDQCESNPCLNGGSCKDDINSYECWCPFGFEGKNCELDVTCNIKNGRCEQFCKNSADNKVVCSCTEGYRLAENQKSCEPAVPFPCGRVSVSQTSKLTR
human plasma-derived Factor IXa (human), sequence (P00740 227-461, chain 2 of 2): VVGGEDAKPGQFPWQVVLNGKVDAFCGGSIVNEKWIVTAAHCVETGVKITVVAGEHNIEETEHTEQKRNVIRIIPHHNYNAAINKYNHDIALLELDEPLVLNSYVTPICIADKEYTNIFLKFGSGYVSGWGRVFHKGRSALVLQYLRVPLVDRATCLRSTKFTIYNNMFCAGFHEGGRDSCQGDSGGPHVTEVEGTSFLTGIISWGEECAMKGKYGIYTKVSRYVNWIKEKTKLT

B1: one-armed (OA) 224F3 antibody (antibody, from another filing, V domains shown)
VH: QVQMQQSGAELVKPGASVKLSCKASGYTFTSQDINWVRQRPEQGLEWIGWIFPGDGSTKYNEKLKGKATLTTDKSSSTAFMQLSRLTSEDSAVYFCARSAYYRYDGSYYYAMDYWGQGTSVTVSS
VL: QIVLTQSPAIMSASLGEEITLTCSASSSVSYMLWYQQKSGTSPKLLIYTTSNLASGVPSRFSGTGSGTFYSLTISSVEAEDAADYYCHQWSSYPRTFGGGTKLEIKR
Question: For B1, which Stimulation Index, FXa generation assay, 3260 nM OA antibody is on record?
Answer: < 10 fold
